Source: article PMC8056390

Tests used:
[1] = target: AmtB with the C312T mutation (trimeric ammonia channel from Escherichia coli) (Escherichia coli) (UniProt P69681); test: native MS
GlnK with Y51F mutation = GlnK with Y51F mutation (UniProt P0AC55); test: native MS

A stoichiometry N [1] of 3 was found for “AmtB with the C312T mutation (trimeric ammonia channel from Escherichia coli) (from UniProt P69681 23-428) (natural protein)” in this work.
A stoichiometry N (GlnK with Y51F mutation) of 3 was found for “GlnK with Y51F mutation (from UniProt P0AC55 1-112) (natural protein)” in this work.
